This note sets out measurements from the supplement of paper PMC12042874.

± gives the uncertainty stated by the source.

This data set can be described thus: amyloid nucleation score (Sup35N fusion, yeast selection) (log enrichment); library NNK2; higher = more nucleation; inactive = no reads after selection. The procedure, abridged: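 The nucleation score is the DiMSum log enrichment of output over input reads, centred on the mode score of non-aggregating sequences. Only sequences with 100 or more input reads were scored, using Illumina sequencing of input and output plasmid inserts. Psi-negative yeast expressing Sup35N fused to peptides of 20 random codons were induced 24 hours with 100 μM copper sulfate and grown 7 days at 30°C on medium lacking adenine and uracil.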
In turn, FGLWQVPSGWNTADRA registered an amyloid nucleation score of 0.743 ± 0.58.
In turn, VRSLN showed an amyloid nucleation score of 0.058 ± 0.6.
VRYDGSKAFEVYMNQIENGS: the amyloid nucleation score is -0.905 ± 0.33.
The result for GAVGARLAINGSSRWMCSWY reads 2.39 ± 0.1; that for MYSVMLRTSYCTLARYMVLW, 1.08 ± 0.11; that for YFVGWCIYEVNAYISVPVVF, “inactive”.
The result for SMVFFGPFIFYVANPITSFV reads 5.54 ± 0.068; that for YRLAWGH, -0.363 ± 1.1; that for NFNACIPNKDRSFSNVDVCV, -1.35 ± 1.
QGYAYMCTGSFFFSLLQVLS gave an amyloid nucleation score of 3.79 ± 0.1.
The same measure for AFTSLPLCYSVYGKIKFCPC: 0.433 ± 0.62; for DHLYMYWGAQ: 1.02 ± 0.37.
The substance NSSRGQPHLSNFPIRHHHVN showed an amyloid nucleation score of 0.461 ± 0.66.
FPAQPAVRSRSACWYVLQVR: the amyloid nucleation score was determined as 0.111 ± 0.49.
Turning to MVWAQSTASMVLDLVFIAPS, the amyloid nucleation score is 1.75 ± 0.29.
The same measure for VDLGLLKKTNFTQLYFGDC: 0.317 ± 0.16; for CLTYYTCLTWKMPCGIRHQG: 0.428 ± 0.22; for WGCCGDLVYAIS: 0.194 ± 0.62.
The same measure for LCYMGRVA: 0.224 ± 0.34; for HYMRFYCCSYNANKTVSYVP: 8.72 ± 0.028; for AVAVACLDH: 0.713 ± 0.58.
In turn, VDLRQCENLHRPWRFRRSGK gave an amyloid nucleation score of 1.4 ± 0.2.
With VLSSHRFNEAKMN, the amyloid nucleation score is -0.366 ± 0.41.
The result for LYHETAENSSRTQTTRRWSF reads -0.321 ± 1; that for HDYFTYT, 4.83 ± 0.059.
With LYRYSSG, the amyloid nucleation score entry is “inactive”.
The result for SLPDRKIKWESGGP reads 0.646 ± 0.33.
The result for VSDACRLDYLLAHILELGSM reads -1.08 ± 0.78.
The result for HLTAYCMSTHRQACDVDFDF reads -0.067 ± 1.1; that for TPSFLLMICRNMVLGCG, 0.472 ± 0.8; that for ARIAETSRYKRSENSLSLV, -0.88 ± 0.76.
On to DRFVLIVHINRGRV, for which the amyloid nucleation score stood at 3.86 ± 0.048.
LVVVRMGGIGLESFVAHGEV returned an amyloid nucleation score of 0.524 ± 0.35.
The same measure for SIRQTCKFGYIMAWL: 7.064 ± 0.057; for QFASISICYKSSIPNDCNDV: 1.12 ± 0.2; for PAASLRLRELMRYDDWRGVA: 0.03 ± 0.38.
In turn, LEAFWKVKSCSVRTGVYGID gave an amyloid nucleation score of -0.555 ± 0.79.
The same measure for VVRAFTDKPRSVSDSLGVIN: 1.16 ± 0.18; for LSYYKVIWGHLMVKYPTYRQ: -0.177 ± 0.32; for SRIIYMPPPVCHESLGKRPV: -0.296 ± 0.63.
In turn, STRDQQWMMRNRG displayed an amyloid nucleation score of -0.381 ± 0.79.
The result for ALSDCL reads -0.427 ± 0.45; that for WSNFVIMNVPANGAWNFRIR, -1.13 ± 0.76.
As for ITPMFPCLVVWWWESR, the amyloid nucleation score was -0.235 ± 0.61.
On to QTDMII, for which the amyloid nucleation score result is “inactive”.
The substance TTRYANWNMNINLGL gave an amyloid nucleation score of 6.613 ± 0.046.
The result for RYALNYTIPEPYWT reads -0.576 ± 0.55; that for KFWLCDEGYWWNVASGLSSV, 0.845 ± 0.32.
The result for NGYRG reads 0.376 ± 0.53; that for ISYIIKILRKVVSWDNDMEV, -1.25 ± 0.45.
Substance HKGFEPVGRGYALCSTWLVV registered an amyloid nucleation score of 6.37 ± 0.074.
The same measure for VVFTGWYHEGWRVV: 0.914 ± 0.18; for RLNRSMSSHHDRRHLEWSLS: 0.235 ± 0.19.
In turn, NIMSFFHLSLGVDFVHVSPG yielded an amyloid nucleation score of 0.144 ± 0.19.
On to HGYSNNTSWAYI, for which the amyloid nucleation score was 0.436 ± 0.65.
The same measure for SAMSCPTKSAELRKCSYHPS: 0.246 ± 0.27; for MFSNFLIRKEGRKKVAMVKK: -1.04 ± 0.33; for IKWRSFPDSYLENFEFI: -1.6 ± 1.1.
Take IYWLSYQTMVPIQAVYIHRC: the amyloid nucleation score is -0.087 ± 0.42.
The result for GTLFIRSPYFCL reads -0.478 ± 0.61; that for DNTLLALVGM, 1.57 ± 0.58; that for AWACYSECQDIRGNYSEVVL, -0.671 ± 0.48.
The result for CFEVFRFRRNRSLISPYQRM reads 0.612 ± 0.62; that for LKLYDKAR, 0.213 ± 0.55.
The same measure for GAWTAMSGVLMVMLWLWSVC: 1.83 ± 0.23; for FGKFFCCWSSLRNEKCYFAM: “inactive”.
The substance LYCQFSYVRCKPGKRSDLGW yielded an amyloid nucleation score of 1.88 ± 0.23.
In turn, SNFVQSGG came in with an amyloid nucleation score of 0.138 ± 0.46.
The result for TGTFRIAWM reads 6.64 ± 0.063; that for ISFMQGDCRWHQVNSLQRIM, -0.94 ± 0.54.
The substance CIELLYEYAIDLQAWVLLER returned an amyloid nucleation score of 0.389 ± 0.66.
The result for YNTISDWTSLEPYTLVRVLL reads 1.91 ± 0.064; that for YLNGLTYWDIMLPWAII, -0.324 ± 1.1.
The result for FIMYFVASRVNSYSSTLRVN reads “inactive”; that for TLTSSCVNFINMLHEIFRYS, -0.623 ± 1.
The substance DAEIMMCYCKFSGFGSITWR had an amyloid nucleation score of 0.143 ± 0.5.
Consider LAKFYLWCSGYMHSS, for which the amyloid nucleation score came to 0.214 ± 0.65.
The same measure for IRVFSDGAFKTEFTTKATLL: 0.328 ± 0.65; for YYWGAGTQHGYLFTFVGGND: -0.326 ± 1; for FVYWFKYT: -1.2 ± 1.1.
The same measure for GGDDVEDMYALGPNFFEGG: 0.627 ± 0.66; for WVVVDNHLS: -0.234 ± 0.65; for CVLDLNVMDGGLL: -1.26 ± 0.38.
The same measure for LQASIIAMVRGRTNDSFLED: 2.7 ± 0.21.
Consider FWVFTNIESMGLAYCDNQDL, for which the amyloid nucleation score stood at 3.09 ± 0.064.
Consider LWIIPQELGLCLMCGVVCCV, for which the amyloid nucleation score is -1.41 ± 0.75.
For the substance SLLIYQMYE, the amyloid nucleation score is -0.263 ± 0.76.
Turning to SFSRYF, the amyloid nucleation score is -1.58 ± 0.75.
As for NRLDNFRHQTEGKRRV, the amyloid nucleation score is -0.841 ± 1.1.
The result for CTTLLALHMWISCVIGWSR reads 0.172 ± 0.39.
Substance RYRVRKCSLANWDEWTTIGC showed an amyloid nucleation score of 1.67 ± 0.19.
Regarding PWVNRCKELCMFVLGVDRGG, the amyloid nucleation score is -0.588 ± 1.1.
Turning to LQMPVVF, the amyloid nucleation score was -0.577 ± 0.26.
The same measure for SMGINSGGRWRADSVSVGLR: 0.786 ± 0.23; for AHYRR: -0.226 ± 0.45; for WLLKFSVGLNFFSEFNVLRC: -1.43 ± 0.75.
The result for YFLKSYGAFSMFQM reads 3.19 ± 0.15; that for FGCNSSGWNVKIPSGGLGNE, -0.647 ± 0.53; that for YGAYVYINSFCKYNIIRSRS, 6.034 ± 0.043.
Consider SYDIFWILWLASCMLILYII, for which the amyloid nucleation score was found to be 2.92 ± 0.099.
The result for TSHRWAMGSRYEVHIAVGMF reads 1.13 ± 0.26.
The same measure for NTRGWDAGS: 1.08 ± 0.28.
The same measure for DCLNYFTTLIKLVSLVCWNG: -0.571 ± 0.79.
RINVPDVRMDPNYQIHF came in with an amyloid nucleation score of -1.02 ± 0.36.
The same measure for WLVKLSGDMF: 2.54 ± 0.073.
The same measure for SVQSSWLNLLAVYIVFCCQR: -0.833 ± 0.54; for VKCLGAFGDE: -0.012 ± 1.1.
In the case of IGIDLVRSGSVIFPSPTWKV, the amyloid nucleation score came to 4.411 ± 0.037.
The result for TRYHLHSALT reads -0.12 ± 1.
As to MSSINTRPRNDA, the amyloid nucleation score was -0.645 ± 0.37.
The same measure for SYWSLRLFCFQLCLDHYRNG: 2.74 ± 0.21; for AYFKYCSSLRGSIRDNRADW: 0.113 ± 0.63.
QTYMPTFCYITFLECWSDKG gave an amyloid nucleation score of 7.685 ± 0.035.
The same measure for DAWSCRRLF: “inactive”.
The result for SRLVVRN reads “inactive”.
The substance FHQIKFRVSFMHCRTSSANI gave an amyloid nucleation score of 2.25 ± 0.089.
The result for SIRSVILLCATLTSVGASLS reads 2.14 ± 0.14; that for GNWMRYIFSKWARLWGWKTY, “inactive”.
In the case of MLQYWMPVLGWWAFMRNLAF, the amyloid nucleation score was found to be 1.71 ± 0.47.
The same measure for RRPCLS: -1.09 ± 0.63.
VIAFYVAFFNRTRVSYRSLW showed an amyloid nucleation score of 4.22 ± 0.06.
Take MSILESIRTRTRRVKGYLSC: the amyloid nucleation score came to 0.315 ± 0.36.
The result for RFQLVSAMAFTYMVAR reads -0.211 ± 0.56; that for GFSRRGELHVSVYHIRDNVR, -1.11 ± 1.1; that for MLLSCYFVVNE, 6.37 ± 0.072.
MRRRMQSWANRSLSTGWGMF yielded an amyloid nucleation score of -0.091 ± 0.38.
The same measure for KVLLMTRT: -0.113 ± 0.45; for DKRIGRVCHSLKIVWCTIML: -0.089 ± 0.41; for GASFMSRNIRTWMTMWCDLK: 0.012 ± 0.23.
The same measure for SHTVGFSRAVRVCRGTDHT: 0.72 ± 0.38; for HNWLSMVQYH: -0.344 ± 0.76; for YKWVVPDWSWVLEMALSLPT: 0.346 ± 0.5.
As for LKSKVTLSYYSIVPAISVYE, the amyloid nucleation score entry was “inactive”.
The result for VWLALEWVLGWSTMR reads 1.73 ± 0.19; that for VLTFRRMHD, 0.398 ± 0.65.
The result for CVKQWRTIIVTLYLGTLPK reads 4.21 ± 0.059; that for VEMAFRFQRSKSCLSLDDFV, “inactive”; that for AHHYSESRGFRCCLTSGYFC, 0.818 ± 0.25.
The result for WCRWMGMH reads 0.543 ± 0.47.
Turning to TDCVKTRPCGRLVKIPLYME, the amyloid nucleation score was -0.708 ± 1.1.
